Measurements: US20220372138A1 (IOMX THERAPEUTICS, published 2022)

T1: human IGSF11 (VSIG3) expressed on cells (human, UniProt Q5DX21 23-431)
T1 sequence: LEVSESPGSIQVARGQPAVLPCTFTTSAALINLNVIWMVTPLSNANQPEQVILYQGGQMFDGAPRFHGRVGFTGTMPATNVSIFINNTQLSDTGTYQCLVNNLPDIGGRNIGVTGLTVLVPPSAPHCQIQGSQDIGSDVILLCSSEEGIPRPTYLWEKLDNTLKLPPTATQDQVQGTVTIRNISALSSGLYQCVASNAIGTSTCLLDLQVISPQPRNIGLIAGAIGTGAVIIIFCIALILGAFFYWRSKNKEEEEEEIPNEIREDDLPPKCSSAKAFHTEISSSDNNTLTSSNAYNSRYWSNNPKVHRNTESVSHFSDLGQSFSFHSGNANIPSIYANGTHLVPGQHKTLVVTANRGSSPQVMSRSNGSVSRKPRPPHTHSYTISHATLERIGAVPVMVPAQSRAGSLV

T2: human IGSF11 (VSIG3) ECD, His-tagged (human, UniProt Q5DX21 23-241)
T2 construct: in part bought (SinoBiological 13094-H08H); also called HIS-IGSF11; IGSF11-HIS; not shown: His tag
T2 sequence: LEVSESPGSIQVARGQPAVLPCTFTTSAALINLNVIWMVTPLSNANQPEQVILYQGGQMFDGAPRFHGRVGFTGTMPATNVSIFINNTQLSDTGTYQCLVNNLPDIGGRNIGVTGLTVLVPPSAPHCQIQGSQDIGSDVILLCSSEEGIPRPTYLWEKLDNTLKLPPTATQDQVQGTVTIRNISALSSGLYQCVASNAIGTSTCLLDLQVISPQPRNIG

T3: extracellular domain (ECD) of human IGSF11 (VSIG3), recombinant (human, UniProt Q5DX21 23-241)
T3 construct: biotinylated where captured on streptavidin; tags of the reagent not always stated; also called IGSF11 (ECD domain); ECD-IGSF11
T3 sequence: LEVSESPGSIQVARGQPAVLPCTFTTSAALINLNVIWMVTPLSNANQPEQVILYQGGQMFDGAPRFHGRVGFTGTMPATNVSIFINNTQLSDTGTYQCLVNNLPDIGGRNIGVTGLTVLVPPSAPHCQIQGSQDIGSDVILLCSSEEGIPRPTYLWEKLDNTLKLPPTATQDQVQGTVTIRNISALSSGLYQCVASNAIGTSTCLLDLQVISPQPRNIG

T4: full-length ECD of human IGSF11 fused to murine Fc (human, UniProt Q5DX21 23-241)
T4 construct: also called Fc-fusion IGSF11 ECD; not shown: murine Fc
T4 sequence: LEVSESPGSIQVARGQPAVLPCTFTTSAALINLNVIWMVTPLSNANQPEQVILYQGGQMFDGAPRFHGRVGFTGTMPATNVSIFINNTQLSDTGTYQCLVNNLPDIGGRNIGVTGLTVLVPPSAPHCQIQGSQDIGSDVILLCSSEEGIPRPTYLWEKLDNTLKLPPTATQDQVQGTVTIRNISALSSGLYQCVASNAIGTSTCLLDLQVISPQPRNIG

T5: IgC2 domain of human IGSF11 fused to murine IgG2a Fc (human, UniProt Q5DX21 137-241)
T5 construct: not shown: murine IgG2a Fc-region
T5 sequence: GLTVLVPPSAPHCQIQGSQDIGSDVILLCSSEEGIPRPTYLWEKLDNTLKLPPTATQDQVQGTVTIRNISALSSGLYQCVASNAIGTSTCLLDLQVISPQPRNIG

T6: IgV domain of human IGSF11 fused to murine IgG2a Fc (human, UniProt Q5DX21 23-143)
T6 construct: not shown: murine IgG2a Fc-region
T6 sequence: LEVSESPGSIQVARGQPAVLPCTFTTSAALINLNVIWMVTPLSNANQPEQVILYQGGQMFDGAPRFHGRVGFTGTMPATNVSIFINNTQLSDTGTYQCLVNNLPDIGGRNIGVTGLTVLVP


Tests used:
[1] = target: T1, human IGSF11 (VSIG3) expressed on cells; experiment: FACS, DMS 273 cells with IGSF11 siRNA (KD, knock-down control)
[2] = target: T1, human IGSF11 (VSIG3) expressed on cells; experiment: FACS, M579-A2-luc cells with IGSF11 siRNA (KD, knock-down control)
[3] = target: T1, human IGSF11 (VSIG3) expressed on cells; experiment: FACS, M579-A2-luc cells with scrambled control siRNA (SC)
[4] = target: T1, human IGSF11 (VSIG3) expressed on cells; experiment: IgG1 FACS HEK-OE
[5] = target: T2, human IGSF11 (VSIG3) ECD, His-tagged; experiment: IgG1 ELISA EC50 0.02-0.05 nM
[6] = target: T1, human IGSF11 (VSIG3) expressed on cells; experiment: FACS, DMS 273 cells with scrambled control siRNA (SC)
[7] = target: T3, extracellular domain (ECD) of human …; experiment: SPR
[8] = target: T3, extracellular domain (ECD) of human …; experiment: BLI
[9] = target: T4, full-length ECD of human IGSF11 fused …; experiment: IgG ELISA
Protocol: (§1) Binding of IgG antibodies to each of the full-length ECD of IGSF11, to the IgV domain of IGSF11 and to the IgC2 domain of IGSF11, was tested in the ELISA assay as follows: briefly, recombinant domains of Fc-fusion IGSF11 proteins were coated at 2 ug/mL on a 384-well Maxisorp plate. The surface was blocked with 2% (w/v) skim milk powder in PBST. […] After removing all unbound antibodies by 3 wash cycles with PBST, bound IgG ABPs were detected with a goat anti-human IgG antibody conjugated with horseradish peroxidase. After three wash cycles with PBST the ELISA was developed with TMB substrate.

[10] = target: T5, IgC2 domain of human IGSF11 fused to …; experiment: IgG ELISA
Protocol: as §1

[11] = target: T2, human IGSF11 (VSIG3) ECD, His-tagged; experiment: IgG1 ELISA EC50 <0.02 nM
[12] = target: T6, IgV domain of human IGSF11 fused to …; experiment: IgG ELISA
Protocol: as §1

[13] = target: T1, human IGSF11 (VSIG3) expressed on cells; experiment: IgG1 FACS DMS 273
[14] = target: T2, human IGSF11 (VSIG3) ECD, His-tagged; experiment: blocking ELISA: VSIR-Fc immobilised, IgG dilution series pre-incubated with 200 nM IGSF11 ECD-His, bound IGSF11 detected with anti-His-HRP
[15] = target: T2, human IGSF11 (VSIG3) ECD, His-tagged; experiment: ELISA: IGSF11-HIS coated, IgG1 dilution series, anti-human antibody-HRP, TMB

| Binder | % binding (FACS heat-map) [1] | % binding (FACS heat-map) [2] | % binding (FACS heat-map) [3] | EC50 [4] | EC50 [5] | % binding (FACS heat-map) [6] | Kd [7] | Kd [8] | EC50 [9] | EC50 [10] | EC50 [11] | EC50 [12] | EC50 [13] | IC50 (read off the curve) [14] | EC50 (read off the curve) [15] |
| --- | --- | --- | --- | --- | --- | --- | --- | --- | --- | --- | --- | --- | --- | --- | --- |
| A-011 (IgG1 format) (antibody, V domains shown, human IgG1 format) VH: QVQLVESGGGVVQPGRSLRLSCAASGFTFSSYAMHWVRQAPGKGLEWVAVISYDGSNKYYADSVKGRFTISRDNSKNTLYLQMNSLRAEDTAVYYCAEGGALNYYGMDVWGQGTTVTVSS VL: SSELTQDPGVSVALGQTVRITCQGDSLRHFYATWYQQKPGQAPILVIYGKNNRPSGIPDRFSGSSSEDTASLTITGAQAEDEADYYCQSRDPRNNHLIFGGGTKLIVL | 3.4% | 2.41% | 2.05% | > 50 nM | – | 6.95% | 250 to 500 nM | 10 to 20 nM | < 1 nM | < 1 nM | < 0.02 nM | – | – | – | – |
| A-010 (IgG1 format) (antibody, V domains shown, human IgG1 format) VH: QVQLVQSGAEVKKPGASVKVSCKASGYTFTSYGISWVRQAPGQGLEWMGWISAYNGNTNYAQKLQGRVTMTTDTSTSTAYMELRSLRSDDTAVYYCARVPAWSGQFDYWGQGTLVTVSS VL: QSALTQPASVSGSPGQSITISCTGSSSDVGGYNYVSWYQQYPGKAPKLMIYDVRSRPSGVSNRFSGSKSGNTASLTISGLQAEDEADYYCTSYTSSNTLVIFGGGTKVTVL | – | – | – | – | – | – | – | – | < 1 nM | – | < 0.02 nM | < 1 nM | – | – | – |
| A-012 (IgG1 format) (antibody, V domains shown, human IgG1 format) VH: EVQLLESGGGLIQPGGSLRLSCAVSGFTVSSNYMSWVRQAPGKGLEWVSVIYSGGSTYYADSVKGRFTISRDNSKNTLYLQMNSLRAEDTAVYYCARGNPYYYGDLQVNFDYWGQGTLVTVSS VL: QAVVTQEPSLTVSPGGTVTLTCASSTGAVTSGYYPNWFQQKPGQAPRALIYSTSNKHSWTPARFSGSLLGGKAALTLSGVQPEDEAEYYCLLYYGGAWVFGGGTKLTVL | 4.77% | 2.35% | 65.4% | 10 to 50 nM | 0.02 to 0.05 nM | 75.8% | 250 to 500 nM | 1 to 10 nM | – | – | – | – | 10 to 50 nM | ~2 nM | ~0.008 nM |
| B-005 (chain-swapped IgG1) (antibody, V domains shown, human IgG1 format; also called B5) VH: EVQLLESGGGLIQPGGSLRLSCAVSGFTVSSNYMSWVRQAPGKGLEWVSVIYSGGSTYYADSVKGRFTISRDNSKNTLYLQMNSLRAEDTAVYYCARGNPYYYGDLQVNFDYWGQGTLVTVSS VL: QAVVTQEPSLTVSPGGTVTPTCGSSTGAVTSGNLPNWFQQKPGQAPRALIYSTSNKHSWTPARISGSLLGGKAALTLSGVQPEDEAEYYCLLYYGGAWVFGGGTKLTVL | – | – | – | – | – | – | – | – | – | – | – | – | – | ~2 nM | ~0.01 nM |

Continued, values first:

| % binding (FACS heat-map) [1] | % binding (FACS heat-map) [2] | % binding (FACS heat-map) [3] | EC50 [4] | EC50 [5] | % binding (FACS heat-map) [6] | Kd [7] | Kd [8] | EC50 [9] | EC50 [10] | EC50 [11] | EC50 [12] | EC50 [13] | IC50 (read off the curve) [14] | EC50 (read off the curve) [15] | Binder |
| --- | --- | --- | --- | --- | --- | --- | --- | --- | --- | --- | --- | --- | --- | --- | --- |
| 3.81% | 2.01% | 11.6% | > 50 nM | 0.02 to 0.05 nM | 64.4% | > 500 nM | 20 to 30 nM | 1 to 20 nM | 1 to 20 nM | – | – | – | – | – | A-026 (IgG1 format) (antibody, V domains shown, human IgG1 format) VH: QVQLQESGPGLVKPSQTLSLTCTVSGGSISSGGYYWSWIRQHPGKGLEWIGYIYYSGSTYYNPSLKSRVTISVDTSKNQFSLKLSSVTAADTAVYYCASWSLGTSNHGWFDPWGQGTLVTVSS VL: QSVLTQPPSASGTPGQRVTISCSGSSSNIGSNTVNWYQQLPGTAPKLLISDNNNRPSGVPDRFSGSKSGTSASLAITGLQAEDEADYYCQSYDSNLSGWVFGGGTKLTVL |
| – | – | – | – | – | – | – | – | – | – | – | – | – | ~2 nM | ~0.008 nM | B-003 (chain-swapped IgG1) (antibody, V domains shown, human IgG1 format; also called B3) VH: EVQLLESGGGLIQPGGSLRLSCAVSGFTVSSNYMSWVRQAPGKGLEWVSVIYSGGSTYYADSVKGRFTISRDNSKNTLYLQMNSLRAEDTAVYYCARGNPYYYGDLQVNFDYWGQGTLVTVSS VL: QAVVTQEPSLTVSPGETVTLTCASSTGAVTSGYYPNWFQQRPGQAPRALIYSTSNKDSWTPARFSGSLLGGKAALTLSGVQPEDEAEYYCLLYYGGAWVFGGGTKLTVL |
